Laboratory results as given in paper doi:10.1101/2023.05.09.540036.
*1 amine or outer side, *2 acyl side, *3 side chain or, on linkers, in order; H or OH if unused. Bridges are numbered along the chain shown (N, C = ends). Primed or numbered codes have the meaning given here. The star is where a group is joined. PEG3′ = three-unit polyethylene glycol linker; NOTA = O=C(O)CN1CCN(CC(=O)O)CCN(CC(=O)*)CC1; TBMB = c1c(C[*:1])cc(C[*:3])cc1C[*:2]

Molecular target: T1, His-Tagged human CD38 recombinant protein (human) (UniProt P28907)
T1 sequence (P28907 whole entry, looked up): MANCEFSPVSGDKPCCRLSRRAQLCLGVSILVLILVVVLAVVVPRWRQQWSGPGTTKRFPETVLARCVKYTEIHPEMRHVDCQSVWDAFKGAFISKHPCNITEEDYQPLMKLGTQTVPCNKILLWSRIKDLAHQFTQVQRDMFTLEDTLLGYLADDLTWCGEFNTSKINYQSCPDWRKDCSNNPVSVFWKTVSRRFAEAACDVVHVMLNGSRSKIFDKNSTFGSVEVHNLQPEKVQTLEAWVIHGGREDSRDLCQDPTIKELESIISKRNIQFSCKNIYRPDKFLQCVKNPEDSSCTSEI
Experiment: SPR

Kd: 19.1 nM
B1: AJ206 (NOTA-conjugated bicyclic peptide) (peptide)
peptide: {NOTA-PEG3′}-ACVPCADFPIWYC-NH2
modifications: linker 2-5-13 via TBMB
